Test results from paper PMC4605305, “TRAP150 interacts with the RNA-binding domain of PSF and antagonizes splicing of numerous PSF-target genes in T cells” (Nucleic Acids Research, 2015).

Columns and labels:
PSF minRRMs = target: T1, PSF minRRMs (human, UniProt P23246 299-449); test: UV crosslinking competition; GST-TRAP150 PID (686-755), no inhibition; UV crosslinking: 12 mM Tris pH 7.5, 120 mM NaCl, 3 mM MgCl2, 1 mM ATP, 20 mM phosphocreatine, 0.1 mM EDTA, 12% glycerol, 1.3% PVA, 25 ng/ul yeast tRNA, 20 ng/ul; details: protein: recombinant; tags: 6xHis-FLAG N-term; label: uniform 32P
T1 sequence: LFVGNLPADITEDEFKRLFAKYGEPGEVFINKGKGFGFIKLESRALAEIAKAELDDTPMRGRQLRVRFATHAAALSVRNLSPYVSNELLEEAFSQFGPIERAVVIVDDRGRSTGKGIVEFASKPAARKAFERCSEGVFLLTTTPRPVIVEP

hnRNP L = target: T2, hnRNP L (UniProt P14866 1-589); test: as above; details: protein: recombinant; tags: 6xHis; label: uniform 32P
T2 sequence: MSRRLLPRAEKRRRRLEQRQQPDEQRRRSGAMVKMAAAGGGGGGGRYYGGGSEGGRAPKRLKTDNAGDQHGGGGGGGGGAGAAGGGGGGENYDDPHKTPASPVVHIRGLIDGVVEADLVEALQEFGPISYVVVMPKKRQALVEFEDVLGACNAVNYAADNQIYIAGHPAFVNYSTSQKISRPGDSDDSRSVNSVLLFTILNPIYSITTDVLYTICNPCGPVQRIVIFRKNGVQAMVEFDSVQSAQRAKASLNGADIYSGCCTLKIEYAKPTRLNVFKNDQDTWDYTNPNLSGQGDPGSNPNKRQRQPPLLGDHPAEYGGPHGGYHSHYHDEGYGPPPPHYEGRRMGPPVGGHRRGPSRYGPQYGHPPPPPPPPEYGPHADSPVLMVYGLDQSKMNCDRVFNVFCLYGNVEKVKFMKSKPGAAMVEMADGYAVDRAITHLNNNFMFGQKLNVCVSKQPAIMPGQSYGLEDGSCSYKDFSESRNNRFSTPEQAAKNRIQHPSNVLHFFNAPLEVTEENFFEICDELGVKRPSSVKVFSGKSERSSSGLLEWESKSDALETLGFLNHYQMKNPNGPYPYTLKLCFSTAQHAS

PSF exRRMs = target: T3, PSF exRRMs (human, UniProt P23246 266-484); test: EMSA; UV crosslinking: 12 mM Tris pH 7.5, 120 mM NaCl, 3 mM MgCl2, 1 mM ATP, 20 mM phosphocreatine, 0.1 mM EDTA, 12% glycerol, 1.3% PVA, 25 ng/ul yeast tRNA, 20 ng/ul; details: protein: recombinant; tags: 6xHis-FLAG N-term; label: uniform 32P
T3 sequence: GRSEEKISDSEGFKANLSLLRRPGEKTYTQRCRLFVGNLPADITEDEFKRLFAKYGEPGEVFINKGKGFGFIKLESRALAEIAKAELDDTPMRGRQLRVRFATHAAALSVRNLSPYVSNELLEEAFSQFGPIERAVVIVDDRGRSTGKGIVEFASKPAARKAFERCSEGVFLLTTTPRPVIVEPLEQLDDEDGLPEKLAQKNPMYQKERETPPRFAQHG

PSF exRRM2 = target: T4, PSF exRRM2 (human, UniProt P23246 366-484); test: EMSA; affinity similar to exRRMs; UV crosslinking: 12 mM Tris pH 7.5, 120 mM NaCl, 3 mM MgCl2, 1 mM ATP, 20 mM phosphocreatine, 0.1 mM EDTA, 12% glycerol, 1.3% PVA, 25 ng/ul yeast tRNA, 20 ng/ul; details: protein: recombinant; tags: 6xHis-FLAG N-term; label: uniform 32P
T4 sequence: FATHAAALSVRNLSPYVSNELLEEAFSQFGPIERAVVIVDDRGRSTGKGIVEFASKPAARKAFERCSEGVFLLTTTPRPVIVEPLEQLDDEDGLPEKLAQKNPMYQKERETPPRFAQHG

PSF full-length (PSF-FL) = target: T5, PSF full-length (PSF-FL) (human, UniProt P23246 1-707); test: UV crosslinking; higher affinity than exRRMs; UV crosslinking: 12 mM Tris pH 7.5, 120 mM NaCl, 3 mM MgCl2, 1 mM ATP, 20 mM phosphocreatine, 0.1 mM EDTA, 12% glycerol, 1.3% PVA, 25 ng/ul yeast tRNA, 20 ng/ul; details: protein: recombinant; tags: 6xHis-FLAG N-term; chain copies: 2; label: uniform 32P
T5 sequence: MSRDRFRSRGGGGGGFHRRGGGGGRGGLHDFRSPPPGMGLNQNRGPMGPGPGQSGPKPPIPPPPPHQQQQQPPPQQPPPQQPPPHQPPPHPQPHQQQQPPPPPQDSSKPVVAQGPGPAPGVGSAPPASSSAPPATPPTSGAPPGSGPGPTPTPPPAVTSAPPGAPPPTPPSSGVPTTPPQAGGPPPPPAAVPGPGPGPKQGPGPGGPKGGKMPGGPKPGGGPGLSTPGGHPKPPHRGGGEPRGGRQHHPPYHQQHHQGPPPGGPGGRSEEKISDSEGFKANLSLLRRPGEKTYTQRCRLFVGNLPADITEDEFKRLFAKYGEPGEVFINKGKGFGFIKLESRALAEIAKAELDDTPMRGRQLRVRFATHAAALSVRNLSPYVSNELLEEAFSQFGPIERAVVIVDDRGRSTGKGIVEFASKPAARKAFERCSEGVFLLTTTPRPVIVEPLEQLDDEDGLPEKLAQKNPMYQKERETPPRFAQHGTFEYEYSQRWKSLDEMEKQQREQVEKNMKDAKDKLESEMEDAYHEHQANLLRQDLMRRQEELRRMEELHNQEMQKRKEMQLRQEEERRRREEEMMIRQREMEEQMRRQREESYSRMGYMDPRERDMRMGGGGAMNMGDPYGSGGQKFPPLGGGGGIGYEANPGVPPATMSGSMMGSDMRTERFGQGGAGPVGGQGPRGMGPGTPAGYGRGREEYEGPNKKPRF

GST-TRAP266–755 = target: T6, GST-TRAP266–755 (UniProt Q9Y2W1 266-755); test: pull-down; 40 ug GST-tagged bait on glutathione sepharose 4B beads; prey incubated 1.5 h at 4°C in PBS; washes with PBS supplemented with 300 mM NaCl; western blot; details: both partners purified
T6 construct: source: E. coli Rosetta(DE3)pLysS, purified (glutathione sepharose, SEC); not shown: GST, N-terminal, kept
T6 sequence (looked up): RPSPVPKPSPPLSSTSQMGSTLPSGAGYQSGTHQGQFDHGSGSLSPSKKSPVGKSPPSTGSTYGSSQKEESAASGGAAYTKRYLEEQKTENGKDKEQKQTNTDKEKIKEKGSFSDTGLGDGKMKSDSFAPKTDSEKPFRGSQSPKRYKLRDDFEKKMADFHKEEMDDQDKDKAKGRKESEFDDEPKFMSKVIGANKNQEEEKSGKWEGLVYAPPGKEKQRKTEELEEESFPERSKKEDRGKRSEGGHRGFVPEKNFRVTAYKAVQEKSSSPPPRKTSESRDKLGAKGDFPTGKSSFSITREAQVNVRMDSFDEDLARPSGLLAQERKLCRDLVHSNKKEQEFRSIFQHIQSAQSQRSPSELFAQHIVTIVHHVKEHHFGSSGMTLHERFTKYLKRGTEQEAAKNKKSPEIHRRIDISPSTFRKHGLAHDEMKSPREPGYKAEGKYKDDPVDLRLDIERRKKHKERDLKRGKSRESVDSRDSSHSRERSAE

[1] = target: T7, GST-TRAPΔN (TRAP150 266-955) (UniProt Q9Y2W1 266-955); test: as above; details: both partners purified
T7 construct: pGEX-6-P1; also called GST-TRAP150ΔN; TRAP150-ΔN; source: E. coli Rosetta(DE3)pLysS, purified (glutathione sepharose, SEC); not shown: GST, N-terminal, kept
T7 sequence (looked up): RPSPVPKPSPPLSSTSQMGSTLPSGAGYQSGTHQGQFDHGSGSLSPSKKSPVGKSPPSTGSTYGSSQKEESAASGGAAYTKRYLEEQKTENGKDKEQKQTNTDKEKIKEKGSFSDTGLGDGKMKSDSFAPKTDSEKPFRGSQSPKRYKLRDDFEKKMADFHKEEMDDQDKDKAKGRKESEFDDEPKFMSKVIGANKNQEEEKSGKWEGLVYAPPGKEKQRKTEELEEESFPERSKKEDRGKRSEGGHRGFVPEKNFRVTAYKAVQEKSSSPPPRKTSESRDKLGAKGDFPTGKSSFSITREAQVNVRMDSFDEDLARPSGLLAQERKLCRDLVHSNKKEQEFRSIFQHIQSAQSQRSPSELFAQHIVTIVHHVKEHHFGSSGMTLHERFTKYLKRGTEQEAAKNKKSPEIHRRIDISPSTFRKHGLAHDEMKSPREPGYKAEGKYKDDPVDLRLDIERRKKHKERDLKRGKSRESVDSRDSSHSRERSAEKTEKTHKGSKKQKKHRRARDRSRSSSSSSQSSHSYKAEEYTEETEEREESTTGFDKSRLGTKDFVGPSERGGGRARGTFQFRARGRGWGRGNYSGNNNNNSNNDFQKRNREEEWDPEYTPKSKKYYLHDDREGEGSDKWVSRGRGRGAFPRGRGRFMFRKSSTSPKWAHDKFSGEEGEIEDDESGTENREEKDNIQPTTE

Measured: binding result

B1: ESS1 (ssRNA)
RNA: ACGCGUCCACUUUCAAGUGACCCCUUACCUACUCACACCACUGCAUUCUCACCCGCAAGCACCUUUGACGCGU
not listed: GST-TRAP266–755 | [1]
binds: all other assays above

B2: HisFLAG-PSF exRRMs (266-484) (domain or fragment, UniProt P23246 266-484, looked up)
chain: GRSEEKISDSEGFKANLSLLRRPGEKTYTQRCRLFVGNLPADITEDEFKRLFAKYGEPGEVFINKGKGFGFIKLESRALAEIAKAELDDTPMRGRQLRVRFATHAAALSVRNLSPYVSNELLEEAFSQFGPIERAVVIVDDRGRSTGKGIVEFASKPAARKAFERCSEGVFLLTTTPRPVIVEPLEQLDDEDGLPEKLAQKNPMYQKERETPPRFAQHG
notes: also called HisFLAG-exRRMs; HFexRRM1+2; source: E. coli Rosetta(DE3)pLysS, purified (Ni-NTA, SEC); not shown: His6, N-terminal, kept; FLAG, N-terminal, kept
binds: GST-TRAP266–755 | [1]
